{"source": "patent US20140271457A1", "about": "(AbbVie / Abbott, published 2014)", "binders": {"B1": {"name": "DVD2713 (bispecific antibody, IgG1)", "VH": "EVQLVESGGGLVQPGGSLRLSCAASGFTFSNYGVTWVRQAPGKGLEWVSMIWADGSTHYASSVKGRFTISRDNSKNTLYLQMNSLRAEDTAVYYCAREWQHGPVAYWGQGTLVTVSSGGGGSGGGGSEVQLVESGGGLVQPGGSLRLSCAASGFSLTNNNVNWVRQAPGKGLEWVGGVWAGGATDYNSALKSRFTISRDNSKNTAYLQMNSLRAEDTAVYYCARDGGYSSSTLYAMDAWGQGTLVTVSS", "VL": "DIQMTQSPSSLSASVGDRVTITCRASQLVSSAVAWYQQKPGKAPKLLIYWASARHTGVPSRFSGSGSGTDFTLTISSLQPEDFATYYCQQHYKTPFTFGQGTKLEIKRGGSGGGGSGDIQMTQSPSSLSASVGDRVTITCRASEDIYNALAWYQQKPGKAPKLLIYNTDTLHTGVPSRFSGSGSGTDYTLTISSLQPEDFATYFCQHYFHYPRTFGQGTKVEIKR"}, "B2": {"name": "DVD2714 (bispecific antibody, IgG1)", "VH": "EVQLVESGGGLVQPGGSLRLSCAASGFTFSNYGVTWVRQAPGKGLEWVSMIWADGSTHYASSVKGRFTISRDNSKNTLYLQMNSLRAEDTAVYYCAREWQHGPVAYWGQGTLVTVSSASTKGPEVQLVESGGGLVQPGGSLRLSCAASGFSLTNNNVNWVRQAPGKGLEWVGGVWAGGATDYNSALKSRFTISRDNSKNTAYLQMNSLRAEDTAVYYCARDGGYSSSTLYAMDAWGQGTLVTVSS", "VL": "DIQMTQSPSSLSASVGDRVTITCRASQLVSSAVAWYQQKPGKAPKLLIYWASARHTGVPSRFSGSGSGTDFTLTISSLQPEDFATYYCQQHYKTPFTFGQGTKLEIKRTVAAPDIQMTQSPSSLSASVGDRVTITCRASEDIYNALAWYQQKPGKAPKLLIYNTDTLHTGVPSRFSGSGSGTDYTLTISSLQPEDFATYFCQHYFHYPRTFGQGTKVEIKR"}, "B3": {"name": "DVD2716 (bispecific antibody, IgG1)", "VH": "B2 VH", "VL": "DIQMTQSPSSLSASVGDRVTITCRASQLVSSAVAWYQQKPGKAPKLLIYWASARHTGVPSRFSGSGSGTDFTLTISSLQPEDFATYYCQQHYKTPFTFGQGTKLEIKRTVAAPSVFIFPPDIQMTQSPSSLSASVGDRVTITCRASEDIYNALAWYQQKPGKAPKLLIYNTDTLHTGVPSRFSGSGSGTDYTLTISSLQPEDFATYFCQHYFHYPRTFGQGTKVEIKR"}, "B4": {"name": "AB267 (antibody, V domains shown)", "VH": "EVQLVESGGGLVQPGGSLRLSCAASGFSLTNNNVNWVRQAPGKGLEWVGGVWAGGATDYNSALKSRFTISRDNSKNTAYLQMNSLRAEDTAVYYCARDGGYSSSTLYAMDAWGQGTLVTVSS", "VL": "DIQMTQSPSSLSASVGDRVTITCRASEDIYNALAWYQQKPGKAPKLLIYNTDTLHTGVPSRFSGSGSGTDYTLTISSLQPEDFATYFCQHYFHYPRTFGQGTKVEIKR"}, "B5": {"name": "DVD3047 (bispecific antibody, IgG1)", "VH": "EVQLVESGGGLVQPGGSLRLSCAASGFSLTNNNVNWVRQAPGKGLEWVGGVWAGGATDYNSALKSRFTISRDNSKNTAYLQMNSLRAEDTAVYYCARDGGYSSSTLYAMDAWGQGTLVTVSSASTKGPSVFPLAPEVQLVQSGAEVKKPGASVKVSCKASGYTFNNYGIIWVRQAPGQGLEWMGWINTYTGKPTYAQKFQGRVTMTTDTSTSTAYMELSSLRSEDTAVYYCARKLFNTVAVTDNAMDYWGQGTTVTVSS", "VL": "DIQMTQSPSSLSASVGDRVTITCRASEDIYNALAWYQQKPGKAPKLLIYNTDTLHTGVPSRFSGSGSGTDYTLTISSLQPEDFATYFCQHYFHYPRTFGQGTKVEIKRTVAAPDIQMTQSPSSLSASVGDRVTITCRASQDIENYLNWYQQKPGKAPKLLIYYTSRLQSGVPSRFSGSGSGTDFTLTISSLQPEDFATYFCQQGNTQPPTFGQGTKLEIKR"}, "B6": {"name": "DVD3121 (bispecific antibody, human IgG1, kappa)", "heavy": "not shown", "light": "DVVMTQSPLSLPVTLGQPASISCRSSQSLVHSHGNTYLHWYQQRPGQSPRLLIYTVSNRFSGVPDRFSGSGSGTDFTLKISRVEAEDVGVYYCSQSTHVPYTFGGGTKVEIKRTVAAPSVFIFPPDIQMTQSPSSLSASVGDRVTITCRASQDIENYLNWYQQKPGKAPKLLIYYTSRLQSGVPSRFSGSGSGTDFTLTISSLQPEDFATYFCQQGNTQPPTFGQGTKLEIKRTVAAPSVFIFPPSDEQLKSGTASVVCLLNNFYPREAKVQWKVDNALQSGNSQESVTEQDSKDSTYSLSSTLTLSKADYEKHKVYACEVTHQGLSSPVTKSFNRGEC"}, "B7": {"name": "DVD3122 (bispecific antibody, human IgG1, kappa)", "heavy": "not shown", "light": "DVVMTQSPLSLPVTLGQPASISCRSSQSLVHSHGNTYLHWYQQRPGQSPRLLIYTVSNRFSGVPDRFSGSGSGTDFTLKISRVEAEDVGVYYCSQSTHVPYTFGGGTKVEIKRTVAAPDIQMTQSPSSLSASVGDRVTITCRASQDIENYLNWYQQKPGKAPKLLIYYTSRLQSGVPSRFSGSGSGTDFTLTISSLQPEDFATYFCQQGNTQPPTFGQGTKLEIKRTVAAPSVFIFPPSDEQLKSGTASVVCLLNNFYPREAKVQWKVDNALQSGNSQESVTEQDSKDSTYSLSSTLTLSKADYEKHKVYACEVTHQGLSSPVTKSFNRGEC"}, "B8": {"name": "DVD3158 (bispecific antibody, human IgG1, kappa)", "heavy": "not shown", "light": "DIQMTQSPSSLSASVGDRVTITCRASQGIRNYLNWYQQKPGKAPKLLIYYASNLEVGVPSRFSGSGSGTDYTLTISSLQPEDFATYYCQQDNRFPYTFGGGTKVEIKRGGSGGGGSGDIQMTQSPSSLSASVGDRVTITCKASQLVSSAVAWYQQKPGKAPKLLIYWASTLHTGVPSRFSGSGSGTDFTLTISSLQPEDFATYYCQQHYRTPFTFGQGTKLEIKRTVAAPSVFIFPPSDEQLKSGTASVVCLLNNFYPREAKVQWKVDNALQSGNSQESVTEQDSKDSTYSLSSTLTLSKADYEKHKVYACEVTHQGLSSPVTKSFNRGEC"}, "B9": {"name": "DVD3159 (bispecific antibody, human IgG1, kappa)", "heavy": "not shown", "light": "DIQMTQSPSSLSASVGDRVTITCRASQGIRNYLNWYQQKPGKAPKLLIYYASNLEVGVPSRFSGSGSGTDYTLTISSLQPEDFATYYCQQDNRFPYTFGGGTKVEIKRTVAAPDIQMTQSPSSLSASVGDRVTITCKASQLVSSAVAWYQQKPGKAPKLLIYWASTLHTGVPSRFSGSGSGTDFTLTISSLQPEDFATYYCQQHYRTPFTFGQGTKLEIKRTVAAPSVFIFPPSDEQLKSGTASVVCLLNNFYPREAKVQWKVDNALQSGNSQESVTEQDSKDSTYSLSSTLTLSKADYEKHKVYACEVTHQGLSSPVTKSFNRGEC"}, "B10": {"name": "DVD2688 (bispecific antibody, human IgG1, kappa)", "heavy": "not shown", "light": "DIQMTQSPSSLSASVGDRVTISCRASQDIRNYLNWYQQKPGKAPKLLIFYTSKLHSGVPSRFSGSGSGTDYTLTISSLQPEDIATYYCQQGLTPPLTFGGGTKVEIKRGGSGGGGSGDIQMTQSPSSLSASVGDRVTITCRASQLVSSAVAWYQQKPGKAPKLLIYWASARHTGVPSRFSGSGSGTDFTLTISSLQPEDFATYYCQQHYKTPFTFGQGTKLEIKRTVAAPSVFIFPPSDEQLKSGTASVVCLLNNFYPREAKVQWKVDNALQSGNSQESVTEQDSKDSTYSLSSTLTLSKADYEKHKVYACEVTHQGLSSPVTKSFNRGEC"}, "B11": {"name": "DVD2689 (bispecific antibody, human IgG1, kappa)", "heavy": "not shown", "light": "DIQMTQSPSSLSASVGDRVTISCRASQDIRNYLNWYQQKPGKAPKLLIFYTSKLHSGVPSRFSGSGSGTDYTLTISSLQPEDIATYYCQQGLTPPLTFGGGTKVEIKRTVAAPDIQMTQSPSSLSASVGDRVTITCRASQLVSSAVAWYQQKPGKAPKLLIYWASARHTGVPSRFSGSGSGTDFTLTISSLQPEDFATYYCQQHYKTPFTFGQGTKLEIKRTVAAPSVFIFPPSDEQLKSGTASVVCLLNNFYPREAKVQWKVDNALQSGNSQESVTEQDSKDSTYSLSSTLTLSKADYEKHKVYACEVTHQGLSSPVTKSFNRGEC"}}, "experiment_in_all_cases": "cell-based or functional assay", "key": {"[1]": {"target": "Recombinant Human TNF-α/TNFSF1A (human, UniProt P01375 77-233)", "sequence (P01375 77-233 limits assumed)": "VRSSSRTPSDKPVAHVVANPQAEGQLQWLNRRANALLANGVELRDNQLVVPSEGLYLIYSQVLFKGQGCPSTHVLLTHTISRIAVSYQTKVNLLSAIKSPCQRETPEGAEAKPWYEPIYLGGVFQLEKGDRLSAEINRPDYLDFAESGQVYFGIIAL"}, "Recombinant Human β-NGF": {"target": "Recombinant Human β-NGF (human, UniProt P01138 122-241)", "sequence (P01138 122-241 limits assumed)": "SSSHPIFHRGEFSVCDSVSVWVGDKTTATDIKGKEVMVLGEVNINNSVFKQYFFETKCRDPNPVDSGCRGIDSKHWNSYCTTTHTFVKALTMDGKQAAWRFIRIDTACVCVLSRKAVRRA"}, "Recombinant Human IL-13": {"target": "Recombinant Human IL-13 (human, UniProt P35225 35-146, limits assumed)", "sequence (P35225 35-146 limits assumed)": "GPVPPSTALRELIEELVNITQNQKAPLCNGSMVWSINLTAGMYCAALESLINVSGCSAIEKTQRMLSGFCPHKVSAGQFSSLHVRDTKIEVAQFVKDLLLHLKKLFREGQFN"}}}
{"binder": "B1", "values": [{"measurement": "N-Terminal VD huTNFα Neutralization Assay IC50", "setting": "[1]", "result": 0.006, "unit": "nM"}, {"measurement": "C-Terminal VD NGF Neutralization Assay IC50", "setting": "Recombinant Human β-NGF", "result": 2.9, "unit": "nM"}]}
{"binder": "B2", "values": [{"measurement": "N-Terminal VD huTNFα Neutralization Assay IC50", "setting": "[1]", "result": 0.008, "unit": "nM"}, {"measurement": "C-Terminal VD NGF Neutralization Assay IC50", "setting": "Recombinant Human β-NGF", "result": 6.85, "unit": "nM"}]}
{"binder": "B3", "values": [{"measurement": "N-Terminal VD huTNFα Neutralization Assay IC50", "setting": "[1]", "result": 0.014, "unit": "nM"}, {"measurement": "C-Terminal VD NGF Neutralization Assay IC50", "setting": "Recombinant Human β-NGF", "result": 0.624, "unit": "nM"}]}
{"binder": "B4", "values": [{"measurement": "NGF Neutralization Assay IC50", "setting": "Recombinant Human β-NGF", "result": 0.007, "unit": "nM"}]}
{"binder": "B5", "values": [{"measurement": "N-Terminal VD NGF Neutralization Assay IC50", "setting": "Recombinant Human β-NGF", "result": "> 10", "unit": "nM"}]}
{"binder": "B6", "values": [{"measurement": "IL-13 Neutralization Assay IC50", "setting": "Recombinant Human IL-13", "result": 0.013, "unit": "nM"}]}
{"binder": "B7", "values": [{"measurement": "IL-13 Neutralization Assay IC50", "setting": "Recombinant Human IL-13", "result": 0.011, "unit": "nM"}]}
{"binder": "B8", "values": [{"measurement": "IL-13 Neutralization Assay IC50", "setting": "Recombinant Human IL-13", "result": 0.137, "unit": "nM"}]}
{"binder": "B9", "values": [{"measurement": "IL-13 Neutralization Assay IC50", "setting": "Recombinant Human IL-13", "result": 0.087, "unit": "nM"}]}
{"binder": "B10", "values": [{"measurement": "IL-13 Neutralization Assay IC50", "setting": "Recombinant Human IL-13", "result": 0.094, "unit": "nM"}]}
{"binder": "B11", "values": [{"measurement": "IL-13 Neutralization Assay IC50", "setting": "Recombinant Human IL-13", "result": 0.147, "unit": "nM"}]}
